Source: article PMC6159526

T1: HicB109-150 (C-terminal DNA-binding domain) (Streptococcus pneumoniae, UniProt A0A0H2URC7 109-150)
T1 chain: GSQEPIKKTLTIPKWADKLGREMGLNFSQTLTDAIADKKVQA


Experiments:
HicB antitoxin [1] = target: T2, HicB antitoxin (Streptococcus pneumoniae, UniProt A0A0H2URC7 1-150); assay: EMSA
[2] = target: T3, HicB antitoxin;HicA toxin (Streptococcus pneumoniae;Streptococcus …, UniProt A0A0H2URC7;A0A0H2URA5 1-150;1-68, |); assay: EMSA
[3] = target: T1, HicB109-150 (C-terminal DNA-binding …); assay: NMR titration
[4] = target: T3, HicB antitoxin;HicA toxin; assay: ITC
HicB antitoxin [5] = target: T2, HicB antitoxin; assay: ITC

Row | Binder | binding result (HicB antitoxin [1]) | binding result [2] | Kd [3] [µM] | Kd [4] [µM] | Kd (HicB antitoxin [5]) [µM]
1 | Pal-I (dsDNA) DNA 1: TCTGTAACGTTCGATACAGA DNA 2: TCTGTATCGAACGTTACAGA | no binding | no binding |  |  | 
2 | hicBA promoter DNA, 28 bp (dsDNA) DNA 1: TAATAGAATAATAAGTATCACTCCTTTA DNA 2: TAAAGGAGTGATACTTATTATTCTATTA |  |  | 4.5 ± 1.1 | 4.2 ± 0.4 | 8.8 ± 1.1
